The record followed here is patent publication US20260070986A1 (AFFIMED, published 2026).

In experiment [1] the target is T1, CD123 on CD123+ cells (EOL-1 and other CD123+ tumour or patient cells) (human, UniProt P26951 19-378).
T1 construct: whole, on cells; also called interleukin-3 receptor
The experiment can be described thus: flow cytometry on CD123+ EOL-1 cells, anti-human IgG-APC detection. The method, then: To analyze binding of CD123xCD16A antibody constructs to CD123+ EOL-1 cells, CD123− A-431 cells and CD123− Karpas-299 cells by flow cytometry, 1×10⁵ cells were resuspended in 100 μL FACS buffer in round-bottom 96-well microtiter plates. After washing in FACS buffer, cells were incubated in 100 μL FACS buffer without antibodies or with titrated antibodies starting at a concentration of 100 μg/mL followed by eight 10-fold serial dilutions for 45 min on ice in the dark. After washing twice, cells were incubated with APC-conjugated goat anti-human IgG (H+L)-APC (1/200 dilution) for 30 min on ice in the dark. After washing, binding was measured by flow cytometry and mean fluorescence intensities (MFI) of cell samples were calculated and corrected for background staining using control cells stained with secondary antibodies only.

Experiment [2] concerns the target T2, recombinant human CD16A 158V, biotinylated mFc.silenced/Avi-tagged (human, UniProt P08637 17-208, biotinylated (Avi-tag)).
T2 construct: not shown: silenced mouse Fc (mFc.silenced) and Avi-tag
The experiment in a line: SPR (Biacore), 37 °C, multi-cycle kinetics, biotin-captured antigen as ligand, antibody construct as analyte, 1:1 binding model. The procedure: (§1) After each cycle, chip surfaces were regenerated with 6M guanidine-HCl, 0.25M NaOH and reloaded with Biotin Capture reagent. Interaction kinetics were determined by fitting data from multi-cycle kinetics experiments to a simple 1:1 interaction model using the local data analysis option (Rmax and RI) available within Biacore T200 Evaluation Software (v3.1). Referencing was done against a flow cell without captured ligand (Fc2-Fc1, Fc4-Fc3).
(§2) Affinity and kinetic parameters were evaluated for interaction with human CD16A and cynomolgus CD16 using a 1:1 Binding model.
(In general: SPR reads the build-up and loss of mass on a sensor chip optically.)

The target in experiment [3] is T3, recombinant human CD16A 158F, biotinylated mFc.silenced/Avi-tagged (human, UniProt P08637 17-208, biotinylated (Avi-tag)).
T3 construct: not shown: silenced mouse Fc (mFc.silenced) and Avi-tag
Described as above. The method, then:
as §1, §2

The target of experiment [4] is T4, recombinant cynomolgus CD16, biotinylated mFc.silenced/Avi-tagged (cynomolgus, UniProt Q8SPW2 17-208, biotinylated (Avi-tag)).
T4 construct: not shown: silenced mouse Fc (mFc.silenced) and Avi-tag
The experiment is described as above. The method, then: as §1, §2

Experiment [5] has as its target T5, human CD16A (158F) on transfected CHO cells (cAg_34) (human, UniProt P08637 17-254).
T5 construct: Exact cell-anchored construct not described; also called huCD16A
The experiment can be described thus: flow cytometry on huCD16A-transfected CHO cells, anti-human IgG-APC detection. The method, then: To analyze binding of different antibody constructs to CHO cells transfected with human CD16A (cAg_34), relative to CD16 expression by flow cytometry, 1-2×10⁵ were resuspended in 100 μL FACS buffer (PBS (Invitrogen, cat.: 14190-169) containing 2% heat-inactivated FCS (Invitrogen, cat.: 10270-106), and 0.1% sodium azide (Roth, Karlsruhe, Germany, cat.: A1430.0100)) in round-bottom 96-well microtiter plates. After washing in FACS buffer, cells were incubated in 50 μL FACS buffer without antibodies or with titrated antibodies starting at a concentration of 100 μg/mL followed by ten 5-fold serial dilutions for 30 min on ice in the dark. After washing twice, cells were incubated with APC-conjugated goat anti-human IgG (H+L)-APC (Dianova, cat. 109-136-088) for 30 min on ice in the dark. […] After washing, binding was measured by flow cytometry and mean fluorescence intensities (MFI) of cell samples were calculated and corrected for background staining using control cells stained with secondary antibodies only.
(§3) Equilibrium dissociation constants (KD) of antibody binding were calculated by plotting MFI values and fitting a non-linear regression model for one-site binding to hyperbolic dose-response curves using GraphPad Prism.
(Flow cytometry measures light scatter and fluorescence of single cells or particles in a stream.)

In experiment [6] the target is T5, human CD16A (158F) on transfected CHO …. The experiment can be described thus: flow cytometry on huCD16A-transfected CHO cells (cAg_34), one-site fit of MFI, experiment 1. The method, then:
(§4) After washing in FACS buffer, cells were incubated in 50 μL FACS buffer without antibodies or with titrated antibodies starting at a concentration of 100 μg/mL followed by ten 5-fold serial dilutions for 30 min on ice in the dark. After washing twice, cells were incubated with APC-conjugated goat anti-human IgG (H+L)-APC (Dianova, cat. 109-136-088) for 30 min on ice in the dark. […] After washing, binding was measured by flow cytometry and mean fluorescence intensities (MFI) of cell samples were calculated and corrected for background staining using control cells stained with secondary antibodies only.
as §3

Experiment [7] shares this target. The experiment in a line: flow cytometry on huCD16A-transfected CHO cells (cAg_34), one-site fit of MFI, experiment 2. The method, then: as §4, §3
For experiment [8] the target is unchanged. The experiment can be described thus: flow cytometry on huCD16A-transfected CHO cells (cAg_34), one-site fit of MFI, experiment 3. The procedure: as §4, §3
For experiment [9] the target is unchanged. The experiment can be described thus: flow cytometry on huCD16A-transfected CHO cells (cAg_34), one-site fit of MFI, mean of 3 experiments. The procedure:
as §4, §3

T4 sequence (Q8SPW2 17-208): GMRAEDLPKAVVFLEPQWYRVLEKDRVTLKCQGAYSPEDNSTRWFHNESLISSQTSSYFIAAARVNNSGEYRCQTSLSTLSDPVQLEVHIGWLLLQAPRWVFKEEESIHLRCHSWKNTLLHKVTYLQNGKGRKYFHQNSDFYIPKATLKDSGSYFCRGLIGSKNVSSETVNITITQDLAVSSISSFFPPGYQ
T3 sequence (P08637 17-208): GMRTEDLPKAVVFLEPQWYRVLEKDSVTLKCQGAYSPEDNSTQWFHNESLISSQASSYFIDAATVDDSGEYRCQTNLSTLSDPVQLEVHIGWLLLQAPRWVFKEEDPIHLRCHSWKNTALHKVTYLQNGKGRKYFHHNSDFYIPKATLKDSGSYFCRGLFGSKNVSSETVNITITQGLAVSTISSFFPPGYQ
T2 sequence (P08637 17-208 F176V limits assumed): as the sequence (P08637 17-208) above, with F160V counted along it
T5 sequence (P08637 17-254 limits assumed): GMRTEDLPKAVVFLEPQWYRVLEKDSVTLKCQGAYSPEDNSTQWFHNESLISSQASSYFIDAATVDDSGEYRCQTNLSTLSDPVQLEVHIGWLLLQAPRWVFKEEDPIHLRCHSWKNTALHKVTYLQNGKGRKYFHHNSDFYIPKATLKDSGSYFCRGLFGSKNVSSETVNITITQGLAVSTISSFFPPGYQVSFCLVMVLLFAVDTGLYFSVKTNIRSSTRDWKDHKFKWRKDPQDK
T1 sequence (P26951 19-378): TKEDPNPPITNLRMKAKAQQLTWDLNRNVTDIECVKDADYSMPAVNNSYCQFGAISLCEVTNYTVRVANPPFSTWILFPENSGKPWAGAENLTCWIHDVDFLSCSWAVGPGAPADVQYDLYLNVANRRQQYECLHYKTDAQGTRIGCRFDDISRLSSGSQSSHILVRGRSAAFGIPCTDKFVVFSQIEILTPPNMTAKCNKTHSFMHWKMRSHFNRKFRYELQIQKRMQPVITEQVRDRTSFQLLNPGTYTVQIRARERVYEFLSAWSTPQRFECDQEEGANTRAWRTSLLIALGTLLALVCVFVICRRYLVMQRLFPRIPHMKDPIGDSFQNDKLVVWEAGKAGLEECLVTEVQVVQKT

B1: scFv-IgAb_264 (CD123-2xCD16a2) (bispecific antibody)
chain 1: QVQLVQSGAEVKKPGASVKMSCKASGYTFTDYYMKWVKQAPGQGLEWIGDIIPSNGATFYNQKFKGKATLTVDRSISTAYMHLNRLRSDDTAVYYCTRSHLLRASWFAYWGQGTLVTVSSASTKGPSVFPLAPSSKSTSGGTAALGCLVKDYFPEPVTVSWNSGALTSGVHTFPAVLQSSGLYSLSSVVTVPSSSLGTQTYICNVNHKPSNTKVDKKVEPKSCDKTHTCPPCPAPEFEGGPSVFLFPPKPKDTLMISRTPEVTCVVVAVSHEDPEVKFNWYVDGVEVHNAKTKPREEQYNSTYRVVSVLTVLHQDWLNGKEYKCKVSNKALPAPIEKTISKAKGQPREPQVYTLPPSREEMTKNQVSLTCLVKGFYPSDIAVEWESNGQPENNYKTTPPVLDSDGSFFLYSKLTVDKSRWQQGNVFSCSVMHEALHNHYTQKSLSLSPGGGGGSGGGGSGGGGSGGGGSGGGGSGGGGSSYELTQPLSVSVALGQTARITCGGHNIGSKNVHWYQQKPGQAPVLVIYQDNKRPSGIPERFSGSNSGNTATLTISRAQAGDEADYYCQVWDNYNVLFGCGTKLTVLGGSGGSGGSGGSGGSGGSGGSQVQLVQSGAEVKKPGASVKVSCKASGYTFTSYYMHWVRQAPGQCLEWMGAIEPRYGSTSYAQKFQGRVTMTRDTSTSTVYMELSSLRSEDTAVYYCARGSAYYYDFADYWGQGTLVTVSS
chain 2: not shown
notes: also called CD123xCD16A ICE
Usually EC50 (read off the curve) stands for the concentration giving half of the maximal effect. High values mean a less potent agent, low ones a more potent agent. What is called Kd is a measure of binding affinity in units of concentration. Usually koff stands for the rate constant with which the complex falls apart. As a reminder, the kon is a measure of how fast the partners come together. Regarding B1, in experiment [1], the concentration giving a half-maximal response (EC50 (read off the curve)) is roughly 0.4 nM. The dissociation constant (Kd) is 0.43 nM in experiment [2], 0.567 nM in experiment [3] and 2.4 nM in experiment [4]. The values for the koff in experiment [2], in experiment [3] and in experiment [4] were 0.0027 s⁻¹, 0.0036 s⁻¹ and 0.013 s⁻¹, respectively. Besides, the kon in [2] came to 6.3e+06 M⁻¹ s⁻¹; in experiment [3], 6.4e+06 M⁻¹ s⁻¹; in experiment [4] it was 5.2e+06 M⁻¹ s⁻¹.

B2: scFv-IgAb_265 (CD123-1xCD16a2) (bispecific antibody)
chain 1: QVQLQQSGAEVKKPGASVKVSCKASGYTFTDYYMKWVKQSHGKSLEWMGDIIPSNGATFYNQKFKGKATLTVDRSTSTAYMELSSLRSEDTAVYYCARSHLLRASWFAYWGQGTLVTVSSASTKGPSVFPLAPSSKSTSGGTAALGCLVKDYFPEPVTVSWNSGALTSGVHTFPAVLQSSGLYSLSSVVTVPSSSLGTQTYICNVNHKPSNTKVDKKVEPKSCDKTHTCPPCPAPEFEGGPSVFLFPPKPKDTLMISRTPEVTCVVVAVSHEDPEVKFNWYVDGVEVHNAKTKPREEQYNSTYRVVSVLTVLHQDWLNGKEYKCKVSNKALPAPIEKTISKAKGQPREPQVYTLPPSREEMTKNQVSLTCLVKGFYPSDIAVEWESNGQPENNYKTTPPVLDSDGSFFLYSKLTVDKSRWQQGNVFSCSVMHEALHNHYTQKSLSLSPGGGGGSGGGGSGGGGSGGGGSGGGGSGGGGSSYELTQPLSVSVALGQTARITCGGHNIGSKNVHWYQQKPGQAPVLVIYQDNKRPSGIPERFSGSNSGNTATLTISRAQAGDEADYYCQVWDNYNVLFGCGTKLTVLGGSGGSGGSGGSGGSGGSGGSQVQLVQSGAEVKKPGASVKVSCKASGYTFTSYYMHWVRQAPGQCLEWMGAIEPRYGSTSYAQKFQGRVTMTRDTSTSTVYMELSSLRSEDTAVYYCARGSAYYYDFADYWGQGTLVTVSS
chain 2: not shown
For B2, in [1], the concentration giving a half-maximal response (EC50 (read off the curve)) was roughly 0.4 nM.

B3: scFv-IgAb_148 (CD123-1xCD16a2) (bispecific antibody)
chain 1: QVQLQQSGAEVKKPGASVKVSCKASGYTFTDYYMKWVKQSHGKSLEWMGDIIPSNGATFYNQKFKGKATLTVDRSTSTAYMELSSLRSEDTAVYYCARSHLLRASWFAYWGQGTLVTVSSASTKGPSVFPLAPSSKSTSGGTAALGCLVKDYFPEPVTVSWNSGALTSGVHTFPAVLQSSGLYSLSSVVTVPSSSLGTQTYICNVNHKPSNTKVDKKVEPKSCDKTHTCPPCPAPEFEGGPSVFLFPPKPKDTLMISRTPEVTCVVVAVSHEDPEVKFNWYVDGVEVHNAKTKPREEQYNSTYRVVSVLTVLHQDWLNGKEYKCKVSNKALPAPIEKTISKAKGQPREPQVYTLPPSREEMTKNQVSLTCLVKGFYPSDIAVEWESNGQPENNYKTTPPVLDSDGSFFLYSKLTVDKSRWQQGNVFSCSVMHEALHNHYTQKSLSLSPGGGGGSGGGGSGGGGSGGGGSGGGGSGGGGSSYVLTQPSSVSVAPGQTATISCGGHNIGSKNVHWYQQRPGQSPVLVIYQDNKRPSGIPERFSGSNSGNTATLTISGTQAMDEADYYCQVWDNYSVLFGGGTKLTVLGGSGGSGGSGGSGGSGGSGGSQVQLVQSGAEVKKPGESLKVSCKASGYTFTSYYMHWVRQAPGQGLEWMGAIEPMYGSTSYAQKFQGRVTMTRDTSTSTVYMELSSLRSEDTAVYYCARGSAYYYDFADYWGQGTLVTVSS
chain 2: not shown
notes: also called CD123xCD16A scFv-IgAb_148; CD16a2xCD123-1
For B3, the “EC50 (read off the curve)” value in experiment [5] is roughly 20 nM. Also, the dissociation constant (Kd) in experiment [6] was determined as 56.2 nM; in experiment [7], 18.7 nM; in [8] it was 37.9 nM; in experiment [9], 37.6 nM; in experiment [2] it was 0.75 nM; in experiment [3] it was 1.25 nM. Moreover, in [4], the Kd turned out to be 2.48 nM. Moreover, the koff worked out at 0.00023 s⁻¹ in experiment [2], 0.00037 s⁻¹ in experiment [3] and 0.00047 s⁻¹ in experiment [4]. Further, the kon in experiment [2] is 310000 M⁻¹ s⁻¹; in [3], 300000 M⁻¹ s⁻¹; in experiment [4] it was 190000 M⁻¹ s⁻¹.
